The target in test [1] is T1, PDZ protein (GST-PDZ fusion) (Homo sapiens, UniProt Q5T2W1).
T1 construct: made in house; host or cells: E. coli (DH5alpha, BL21 or JM109)
T1 sequence (Q5T2W1 1-519): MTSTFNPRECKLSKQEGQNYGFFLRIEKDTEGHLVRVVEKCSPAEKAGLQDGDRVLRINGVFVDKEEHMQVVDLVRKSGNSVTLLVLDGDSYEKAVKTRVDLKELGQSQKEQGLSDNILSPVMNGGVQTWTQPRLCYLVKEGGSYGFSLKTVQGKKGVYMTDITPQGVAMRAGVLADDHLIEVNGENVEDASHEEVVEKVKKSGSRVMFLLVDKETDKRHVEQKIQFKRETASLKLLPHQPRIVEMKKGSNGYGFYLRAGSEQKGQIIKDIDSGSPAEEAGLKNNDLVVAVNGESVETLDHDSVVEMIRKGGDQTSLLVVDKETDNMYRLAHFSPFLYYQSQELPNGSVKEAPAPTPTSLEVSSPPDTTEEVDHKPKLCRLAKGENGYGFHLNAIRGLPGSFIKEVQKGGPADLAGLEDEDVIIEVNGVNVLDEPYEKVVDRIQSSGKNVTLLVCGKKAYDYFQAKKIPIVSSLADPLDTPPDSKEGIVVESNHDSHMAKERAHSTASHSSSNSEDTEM
Nature of the test: G' assay (10 uM PL peptide), results of TABLE 7 and TABLE 12. It is filed as binding. The method in brief:
(§1)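 Biotinylated PL peptides at 10 uM (vs 20 uM in G^0 assay) bound to GST-PDZ fusions; PDZ protein at 5 ug/ml unless another concentration listed. Bound peptide read as A450 nm, classified 0–5 (0 = A450 0; 5 = A450 >4 repeated).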

For test [2], the target named is T2, PDZ protein (GST-PDZ fusion) (Homo sapiens, UniProt Q9UDY2).
T2 construct: made in house; host or cells: E. coli (DH5alpha, BL21 or JM109)
T2 sequence (Q9UDY2 1-1190): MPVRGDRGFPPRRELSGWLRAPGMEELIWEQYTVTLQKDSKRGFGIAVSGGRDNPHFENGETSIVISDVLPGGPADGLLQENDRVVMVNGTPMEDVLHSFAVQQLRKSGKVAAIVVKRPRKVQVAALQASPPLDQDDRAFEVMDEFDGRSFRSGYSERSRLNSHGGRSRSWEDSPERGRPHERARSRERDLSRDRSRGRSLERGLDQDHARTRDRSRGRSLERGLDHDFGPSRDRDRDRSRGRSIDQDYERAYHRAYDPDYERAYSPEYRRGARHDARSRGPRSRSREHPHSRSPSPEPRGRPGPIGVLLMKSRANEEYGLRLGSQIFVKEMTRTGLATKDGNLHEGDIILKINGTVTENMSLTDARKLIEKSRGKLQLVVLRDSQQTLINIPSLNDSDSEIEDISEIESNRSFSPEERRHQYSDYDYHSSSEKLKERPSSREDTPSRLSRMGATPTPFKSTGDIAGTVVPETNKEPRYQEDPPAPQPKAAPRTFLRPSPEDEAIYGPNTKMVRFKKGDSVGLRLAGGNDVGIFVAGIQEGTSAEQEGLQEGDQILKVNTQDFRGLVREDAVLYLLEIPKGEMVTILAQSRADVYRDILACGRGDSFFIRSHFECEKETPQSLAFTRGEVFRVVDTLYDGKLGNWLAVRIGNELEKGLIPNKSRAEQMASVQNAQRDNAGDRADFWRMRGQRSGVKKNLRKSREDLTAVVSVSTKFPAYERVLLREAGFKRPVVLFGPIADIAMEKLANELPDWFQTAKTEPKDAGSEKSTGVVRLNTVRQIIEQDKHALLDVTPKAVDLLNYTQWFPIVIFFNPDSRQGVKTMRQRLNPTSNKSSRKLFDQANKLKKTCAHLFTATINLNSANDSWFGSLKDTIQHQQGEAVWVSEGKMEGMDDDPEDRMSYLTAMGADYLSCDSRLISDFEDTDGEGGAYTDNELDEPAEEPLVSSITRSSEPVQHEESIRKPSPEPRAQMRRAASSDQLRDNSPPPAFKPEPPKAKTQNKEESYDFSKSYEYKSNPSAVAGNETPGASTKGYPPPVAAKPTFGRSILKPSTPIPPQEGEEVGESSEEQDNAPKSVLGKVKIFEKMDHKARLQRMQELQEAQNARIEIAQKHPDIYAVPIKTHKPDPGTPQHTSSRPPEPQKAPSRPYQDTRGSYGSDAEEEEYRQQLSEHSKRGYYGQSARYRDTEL
The description is as above. The format is binding. Put shortly:
as §1

Among the data in patent publication US20050282743A1, “Molecular interactions in cells” (Arbor Vita Corporation, priority 2001, published 2005) are Classification values, retold here.

Ends that are not written are not given here. Peptide text beside a SMILES is read from it. * marks the point of attachment. Biotin = O=C1N[C@H]2[C@H](CS[C@H]2CCCCC(=O)*)N1

Consider “ARHRVTSYTSSSVNVSSNL (Biotin-ARHRVTSYTSSSVNVSSNL) [IL-8RB]”, for which the Classification in test [1] (PDZ PDZK1, PDZ Domain 2, 3, 4) is reported as 1 (A450 nm 0-1).

Turning to `CC[C@H](C)[C@H](NC(=O)[C@H](Cc1ccc(O)cc1)NC(=O)[C@@H](NC(=O)[C@@H]1CCCN1C(=O)[C@H](CCC(N)=O)NC(=O)[C@H](CCC(=O)O)NC(=O)[C@H](CCC(N)=O)NC(=O)[C@H](C)NC(=O)[C@@H](NC(=O)[C@H](CC(C)C)NC(=O)[C@H](CC(C)C)NC(=O)[C@H](CCCNC(=N)N)NC(=O)[C@H](Cc1ccc(O)cc1)NC(=O)[C@H](CCSC)NC(=O)[C@H](C)NC(=O)[C@H](C)NC(=O)[C@@H]1CCCN1C(=O)[C@H](CCSC)NC(=O)[C@@H](NC(=O)[C@H](CCCCN)NC(=O)CCCC[C@@H]1SC[C@@H]2NC(=O)N[C@@H]21)[C@@H](C)O)[C@@H](C)O)C(C)C)C(=O)O` [MINT-1] (Biotin-KTMPAAMYRLLTAQEQPVYI-OH; C-terminus assumed), in test [1] (PDZ PDZK-1, PDZ Domain 4), the Classification is 1 (A450 nm 0-1). In the case of `CC(C)C[C@H](NC(=O)[C@H](C)NC(=O)[C@@H](NC(=O)[C@@H](NC(=O)[C@H](Cc1c[nH]cn1)NC(=O)[C@H](CC(C)C)NC(=O)CNC(=O)[C@H](CCC(N)=O)NC(=O)CNC(=O)CNC(=O)[C@H](C)NC(=O)[C@H](C)NC(=O)[C@H](CCCNC(=N)N)NC(=O)[C@H](C)NC(=O)[C@H](CO)NC(=O)[C@H](CC(=O)O)NC(=O)[C@H](CC(=O)O)NC(=O)[C@H](Cc1c[nH]c2ccccc12)NC(=O)[C@H](C)NC(=O)CCCC[C@@H]1SC[C@@H]2NC(=O)N[C@@H]21)C(C)C)[C@@H](C)O)C(=O)O` [LPAP] (Biotin-AWDDSARAAGGQGLHVTAL-OH; C-terminus assumed), the Classification in test [1] (PDZ PDZK1, PDZ Domain 2, 3, 4) was 3 (A450 nm 2-3).

Take `CC[C@H](C)[C@H](NC(=O)[C@H](CO)NC(=O)[C@H](CCC(=O)O)NC(=O)[C@H](Cc1ccc(O)cc1)NC(=O)[C@H](CC(=O)O)NC(=O)[C@H](CC(N)=O)NC(=O)[C@H](CCC(=O)O)NC(=O)[C@H](CCCCN)NC(=O)CCCC[C@@H]1SC[C@@H]2NC(=O)N[C@@H]21)C(=O)N[C@@H](CO)C(=O)N[C@@H](CC(=O)O)C(=O)N[C@@H](CC(C)C)C(=O)N[C@@H](CCC(N)=O)C(=O)N[C@@H](CCC(N)=O)C(=O)NCC(=O)N[C@@H](CCCNC(=N)N)C(=O)N[C@@H](CC(=O)O)C(=O)N[C@H](C(=O)N[C@H](C(=O)N[C@@H](CCCNC(=N)N)C(=O)N[C@@H](CC(C)C)C(=O)O)[C@@H](C)O)[C@@H](C)CC` [PAG] (Biotin-KENDYESISDLQQGRDITRL-OH; C-terminus assumed): the Classification in test [1] (PDZ PDZK1, PDZ Domain 2, 3, 4) was 1 (A450 nm 0-1). Consider `CC[C@H](C)[C@H](NC(=O)[C@H](CCCCN)NC(=O)[C@@H](NC(=O)[C@H](CO)NC(=O)[C@@H]1CCCN1C(=O)[C@H](Cc1ccccc1)NC(=O)[C@@H](NC(=O)[C@@H](NC(=O)[C@H](CCCNC(=N)N)NC(=O)[C@H](CCC(=O)O)NC(=O)[C@H](CC(C)C)NC(=O)[C@H](CC(C)C)NC(=O)[C@H](CC(C)C)NC(=O)[C@@H](NC(=O)CNC(=O)[C@@H](NC(=O)CCCC[C@@H]1SC[C@@H]2NC(=O)N[C@@H]21)C(C)C)[C@@H](C)O)C(C)C)[C@@H](C)CC)C(C)C)C(=O)N[C@@H](C)C(=O)N[C@H](C(=O)N[C@@H](CC(C)C)C(=O)N[C@H](C(=O)O)C(C)C)[C@@H](C)O` [Adenovirus E4 Type9], for which the Classification in test [2] (PDZ ZO-2, PDZ Domain 1, PL peptide 10 uM) was 3 (A450 nm 2-3). As to `CSCC[C@H](NC(=O)[C@H](C)NC(=O)[C@H](CCCNC(=N)N)NC(=O)CNC(=O)[C@@H](NC(=O)[C@H](Cc1c[nH]c2ccccc12)NC(=O)[C@H](CCCNC(=N)N)NC(=O)CNC(=O)CCCC[C@@H]1SC[C@@H]2NC(=O)N[C@@H]21)[C@@H](C)O)C(=O)N[C@@H](CO)C(=O)N[C@@H](C)C(=O)N[C@@H](Cc1c[nH]c2ccccc12)C(=O)N[C@@H](CCCCN)C(=O)N1CCC[C@H]1C(=O)N[C@H](C(=O)N[C@@H](CCCNC(=N)N)C(=O)N[C@@H](CCCNC(=N)N)C(=O)N[C@@H](CCC(=O)O)C(=O)N[C@H](C(=O)N[C@@H](CCC(=O)O)C(=O)N[C@H](C(=O)O)C(C)C)[C@@H](C)O)[C@@H](C)O` [HPV E6 #35 (modified)] (Biotin-GRWTGRAMSAWKPTRRETEV-OH; C-terminus assumed), in test [2] (PDZ ZO-2, PDZ Domain 1), the Classification is 2 (A450 nm 1-2). As to “GPVPGEPAKPKTSAHHATFV (Biotin-GPVPGEPAKPKTSAHHATFV)”, the Classification in test [2] (PDZ ZO-2, PDZ Domain 1) is 1 (A450 nm 0-1). “PPATPSPRLALPAHHNATRL (Biotin-PPATPSPRLALPAHHNATRL) [Na+/Pi cotransporter 2]”: the Classification in test [1] (PDZ PDZK1, PDZ Domain 2, 3, 4) is 1 (A450 nm 0-1); in test [2] (PDZ ZO-2, PDZ Domain 1), 1 (A450 nm 0-1). Consider “KTMPAAMFRLLTGQETPLYI (Biotin-KTMPAAMFRLLTGQETPLYI) [MINT-2]”, for which the Classification in test [1] (PDZ PDZK-1, PDZ Domain 4) is given as 1 (A450 nm 0-1). For the molecule “A2AA_HUMAN (modified) (Biotin-HDFRRAFKKILARGDRKRIV; not fully specified)”, in test [2] (PDZ ZO-2, PDZ Domain 2), the Classification is listed as 2 (A450 nm 1-2).

Consider `CC[C@H](C)[C@H](NC(=O)CNC(=O)[C@H](CO)NC(=O)[C@H](Cc1ccccc1)NC(=O)[C@@H](NC(=O)[C@H](CS)NC(=O)CNC(=O)CNC(=O)[C@H](C)NC(=O)[C@@H]1CCCN1C(=O)[C@@H](NC(=O)[C@@H]1CCCN1C(=O)CCCC[C@@H]1SC[C@@H]2NC(=O)N[C@@H]21)[C@@H](C)CC)[C@@H](C)O)C(=O)N[C@@H](Cc1ccccc1)C(=O)N1CCC[C@H]1C(=O)N[C@H](C(=O)N[C@@H](CC(C)C)C(=O)N[C@H](C(=O)N[C@@H](CO)C(=O)N1CCC[C@H]1C(=O)N[C@@H](CC(C)C)C(=O)O)[C@@H](C)O)[C@@H](C)O` [KIA 1481] (Biotin-PIPAGGCTFSGIFPTLTSPL-OH; C-terminus assumed), for which the Classification in test [1] (PDZ PDZK1, PDZ Domain 2, 3, 4) is reported as 2 (A450 nm 1-2). As to `CC[C@H](C)[C@H](NC(=O)[C@H](CC(=O)O)NC(=O)[C@H](CCC(=O)O)NC(=O)[C@H](CCCNC(=N)N)NC(=O)[C@@H](NC(=O)CCCC[C@@H]1SC[C@@H]2NC(=O)N[C@@H]21)[C@@H](C)O)C(=O)N[C@@H](Cc1ccc(O)cc1)C(=O)N[C@H](C(=O)N[C@@H](CC(N)=O)C(=O)N[C@@H](Cc1ccc(O)cc1)C(=O)N1CCC[C@H]1C(=O)N[C@H](C(=O)N[C@@H](Cc1ccccc1)C(=O)N[C@@H](CO)C(=O)N[C@@H](CCCNC(=N)N)C(=O)N[C@@H](CCCNC(=N)N)C(=O)N1CCC[C@H]1C(=O)N[C@@H](CCCCN)C(=O)N[C@H](C(=O)N[C@@H](CCCNC(=N)N)C(=O)N[C@H](C(=O)O)C(C)C)[C@@H](C)O)[C@@H](C)O)C(C)C` [DNAM-1] (Biotin-TREDIYVNYPTFSRRPKTRV-OH; C-terminus assumed), in test [2] (PDZ ZO-2, PDZ Domain 1), the Classification is 3 (A450 nm 2-3). In the case of “ELLQFCRTPNPALKNGQYWV (Biotin-ELLQFCRTPNPALKNGQYWV)”, the Classification in test [2] (PDZ ZO-2, PDZ Domain 1) was 5 (A450 nm of 4 more than 2× repeated); in test [2] (PDZ ZO-2, PDZ Domain 2), 1 (A450 nm 0-1).
